From the RNAGym collection of RNA variant scans (doi:10.1073/pnas.2313332121) come the findings set out here.

Sequences and labels used below:
B1: TPR t1 (parent)
chain: GACCAAUCUGCCCUCAGAGCUCGAGAACAUCUUCGGAUGCAGAGGAGGCAGGCUUCGGUGGCGCGAUAGCGCCAACGUCCUCAACCUCCAAUGCAUCCCACCACAUGAUGAUGCCUGAAGAGCCUUGGUUUUUUG

The variants in this data set derive from B1. Nature of the data set: polymerase ribozyme fitness, log enrichment relative to wild type (log ratio); higher = more active; in vitro selection for triplet polymerase activity. The gist of the method:
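Mutant libraries of each subunit of a heterodimeric triplet polymerase ribozyme were built by PCR and transcribed. Each library went through one round of in vitro selection in triplicate: annealing with biotinylated primer, partner subunit and triplets, frozen incubation at −7 °C, gel excision of extended constructs, streptavidin-bead capture and RT-PCR. Input and output libraries were Illumina-sequenced; only genotypes with ≥10 input reads and ≥1 read per output were kept. Fitness is log2(genotype enrichment/wild-type enrichment), using inverse-variance-weighted replicate averages.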
For the variant GACCAAUCUGCCCUCAGAGCUCGAGAACAUCUUCGGAUGCAGAGGAGGCAGGCUUCGGUGGCGCGAUAGCGCCAACGUCCUCAACCUACAAUGCAUCCCACCACAUGAUGAUGUCUGAAGAGCCUUGGUUUUUUG, the “polymerase ribozyme fitness (log ratio)” value is -2.51. On to GACCAAUCUGCCCUCAGAGCUCGAGAACAUCUUCGGAUGCAGAGGAGGCAGGCUUCGGUGGCGCGAUAGCGCCAACGUCCUCAACCCCCAAUGCAUCCCACCACAUGAUGAUACCUGAAGAGCCUUGGUUUUUUG, for which the “polymerase ribozyme fitness (log ratio)” value is -0.807. Under GACCAAUCUGCCCUCAGAGCUCGAGAACAUCUUCGGAUGCAGAGGAGGCAGGCUUCGGUGGCGCGAUAGCGCCAACGUCCUCAACCUACAAUUCAUCCCACCACAUGAUGAUGCCUGAAUAGCCUUGGUUUUUUG stands -3.17; under GACCAAUCUGCCCUCAGAGCUCGAGAACAUCUUCGGAUGCAGAGGAGGCAGGCUUCGGUGGCGCGAUAGCGCCAACGUCCUCAACCGCCAAUGCAUCCCACCACAUGAUGAUGCCUGAAGAGCCUGGGUUUUUUG, -1.84.

As for GACCAAUCUGCCCUCAGAGCUCGAGAACAUCUUCGGAUGCAGAGGAGGCAGGCUUCGGUGGCGCGAUAGCGCCAACGUCCUCAACCUACAAUGCAUCCCAGCACAUGAUGAUGCCCGAAGAGCCUUGGUUUUUUG, the “polymerase ribozyme fitness (log ratio)” value is -2.59. With GACCAAUCUGCCCUCAGAGCUCGAGAACAUCUUCGGAUGCAGAGGAGGCAGGCUUCGGUGGCGCGAUAGCGCCAACGUCCUCAACCGCCAAUGCAUCCCACCACAUGAUGAUGCCUGAAGAGCCUUGGUUUUUUG the figure was 0.133. Under GACCAAUCUGCCCUCAGAGCUCGAGAACAUCUUCGGAUGCAGAGGAGGCAGGCUUCGGUGGCGCGAUAGCGCCAACGUCCUCAACCCCCAAUGCAUCCCACCACAUGAUGAUGCCUGAAGAGCCUUGGUUUUUUG stands 0.386; under GACCAAUCUGCCCUCAGAGCUCGAGAACAUCUUCGGAUGCAGAGGAGGCAGGCUUCGGUGGCGCGAUAGCGCCAACGUCCUCAACCCCCAAUGCAUCCCACCAUAUGAUGAUGCCUGAAGAGCCUUGGUUUUUUG, 0.232; under GACCAAUCUGCCCUCAGAGCUCGAGAACAUCUUCGGAUGCAGAGGAGGCAGGCUUCGGUGGCGCGAUAGCGCCAACGUCCUCAACCCCCAAUGCAUCCCACCACAUGAUGAUGCCUGAAGAGCCUUGGCUUUUUG, -0.143. With GACCAAUCUGCCCUCAGAGCUCGAGAACAUCUUCGGAUGCAGAGGAGGCAGGCUUCGGUGGCGCGAUAGCGCCAACGUCCUCAACCGCCAAUGCAACCCACAACAUGAUGAUGCCUGAAGAGCCUUGGUUUUUUG the figure was -2.66; with GACCAAUCUGCCCUCAGAGCUCGAGAACAUCUUCGGAUGCAGAGGAGGCAGGCUUCGGUGGCGCGAUAGCGCCAACGUCCUCAACCUACAAUGCAUCCCACCACAUGAUGAUGCCUGAAGAGGCUUGGUUUUUUG, 1.69. Take GACCAAUCUGCCCUCAGAGCUCGAGAACAUCUUCGGAUGCAGAGGAGGCAGGCUUCGGUGGCGCGAUAGCGCCAACGUCCUCAACCCCCAAUGCAUCCCACCACAUGACGAUGCCUGAAGAGCCUUGGUCUUUUG: the “polymerase ribozyme fitness (log ratio)” value was -5.36. As to GACCAAUCUGCCCUCAGAGCUCGAGAACAUCUUCGGAUGCAGAGGAGGCAGGCUUCGGUGGCGCGAUAGCGCCAACGUCCUCAACCCCCAAUGCAUCCCACCACAAGAUGAUGCCUGAAGAGCCUUGCUUUUUUG, the “polymerase ribozyme fitness (log ratio)” value is -1.61. With GACCAAUCUGCCCUCAGAGCUCGAGAACAUCUUCGGAUGCAGAGGAGGCAGGCUUCGGUGGCGCGAUAGCGCCAACGUCCUCAACCUACAAUGCAUCACACCACAUGAUGAUGCCUGAAGAGCCUUGGUUUUUUG, the “polymerase ribozyme fitness (log ratio)” value is -4.39. Under GACCAAUCUGCCCUCAGAGCUCGAGAACAUCUUCGGAUGCAGAGGAGGCAGGCUUCGGUGGCGCGAUAGCGCCAACGUCCUCAACCGCCAAUGCAUCCCACCACAUGAUGCUGCCUGAAGAGCCUUGGUUUUUUG stands 1.16; under GACCAAUCUGCCCUCAGAGCUCGAGAACAUCUUCGGAUGCAGAGGAGGCAGGCUUCGGUGGCGCGAUAGCGCCAACGUCCUCAACCUACAAUGCAUCCCACCACAUGAUGAUACCUGAAGAGCCUUGGUUUUUUG, -1.6. On to GACCAAUCUGCCCUCAGAGCUCGAGAACAUCUUCGGAUGCAGAGGAGGCAGGCUUCGGUGGCGCGAUAGCGCCAACGUCCUCAACCUACAAUGCAUCCCACCACAUGAUGCUGCCUGAAGAGCCUUGGUUUUUUG, for which the “polymerase ribozyme fitness (log ratio)” value was 0.245. Regarding GACCAAUCUGCCCUCAGAGCUCGAGAACAUCUUCGGAUGCAGAGGAGGCAGGCUUCGGUGGCGCGAUAGCGCCAACGUCCUCAACCGCCAUUGCAUCCCACCACAUGAUGAUGCCUGAAGAGCCUUGGUUUUUUG, the “polymerase ribozyme fitness (log ratio)” value is -1.46.

With GACCAAUCUGCCCUCAGAGCUCGAGAACAUCUUCGGAUGCAGAGGAGGCAGGCUUCGGUGGCGCGAUAGCGCCAACGUCCUCAACCGCCAAUGCAUCCCACUACAUGAUGAUGCCUGAAGAGCCUUGGUUUUUUG, the “polymerase ribozyme fitness (log ratio)” value is -0.897. Under GACCAAUCUGCCCUCAGAGCUCGAGAACAUCUUCGGAUGCAGAGGAGGCAGGCUUCGGUGGCGCGAUAGCGCCAACGUCCUCAACCCCCAAUGCAUCCCACCACAUGAUGAUGCCAGAAGGGCCUUGGUUUUUUG stands 1.1; under GACCAAUCUGCCCUCAGAGCUCGAGAACAUCUUCGGAUGCAGAGGAGGCAGGCUUCGGUGGCGCGAUAGCGCCAACGUCCUCAACCGCCAAUGCAUCCCACCACAUGAUGAUGCUUGAAGAGCCUUGGUUUUUUG, -0.742. For the variant GACCAAUCUGCCCUCAGAGCUCGAGAACAUCUUCGGAUGCAGAGGAGGCAGGCUUCGGUGGCGCGAUAGCGCCAACGUCCUCAACCCCCAAUGCAUCCCACUACAUGAUGAAGCCUGAAGAACCUUGGUUUUUUG, the “polymerase ribozyme fitness (log ratio)” value was -0.872.

Turning to GACCAAUCUGCCCUCAGAGCUCGAGAACAUCUUCGGAUGCAGAGGAGGCAGGCUUCGGUGGCGCGAUAGCGCCAACGUCCUCAACCUACAAUGCAUCCCACCACAUUAUGAUGCCUGAAGAGCCUUGGUUUUUUG, the “polymerase ribozyme fitness (log ratio)” value was -4.63.

Regarding GACCAAUCUGCCCUCAGAGCUCGAGAACAUCUUCGGAUGCAGAGGAGGCAGGCUUCGGUGGCGCGAUAGCGCCAACGUCCUCAACCUACAAUGCAUCCCACCACAUGAUGAUGCCUGAAGUGCCUUGGUUUUUUG, the “polymerase ribozyme fitness (log ratio)” value was 0.835.

Take GACCAAUCUGCCCUCAGAGCUCGAGAACAUCUUCGGAUGCAGAGGAGGCAGGCUUCGGUGGCGCGAUAGCGCCAACGUCCUCAACCUACAAUGCAUCCCACCACAUGAUGAUGCGUGAACAGACUUGGUUUUUUG: the “polymerase ribozyme fitness (log ratio)” value was 0.0548. For the variant GACCAAUCUGCCCUCAGAGCUCGAGAACAUCUUCGGAUGCAGAGGAGGCAGGCUUCGGUGGCGCGAUAGCGCCAACGUCCUCAACCGCCAAUGCAUCCCACCAUAUGAUGAUGCCUAAAGAGCCUUGGUUUUUUG, the “polymerase ribozyme fitness (log ratio)” value was -3.2. With GACCAAUCUGCCCUCAGAGCUCGAGAACAUCUUCGGAUGCAGAGGAGGCAGGCUUCGGUGGCGCGAUAGCGCCAACGUCCUCAACCUACAAUGCAUCACACCACAUGAUGAUGCCUGAAGAGCGUUGGUUUUUUG the figure was -3.46; with GACCAAUCUGCCCUCAGAGCUCGAGAACAUCUUCGGAUGCAGAGGAGGCAGGCUUCGGUGGCGCGAUAGCGCCAACGUCCUCAACCCCAAAUGCAUCCCACCACAUGAUGAUACCUGAAGAGCCUUGGUUUUUUG, -2.28; with GACCAAUCUGCCCUCAGAGCUCGAGAACAUCUUCGGAUGCAGAGGAGGCAGGCUUCGGUGGCGCGAUAGCGCCAACGUCCUCAACCUACAAUGCAUCCCACCACAUGAUGAUGCCUGAAGAACCUUGGUUUUUUG, -1.31. With GACCAAUCUGCCCUCAGAGCUCGAGAACAUCUUCGGAUGCAGAGGAGGCAGGCUUCGGUGGCGCGAUAGCGCCAACGUCCUCAACCGCCAAUGCAGCCUACCACAUGAUGAUGCCUGAAGAGCCUUGGUUUUUUG, the “polymerase ribozyme fitness (log ratio)” value was -2.81. As to GACCAAUCUGCCCUCAGAGCUCGAGAACAUCUUCGGAUGCAGAGGAGGCAGGCUUCGGUGGCGCGAUAGCGCCAACGUCCUCAACCCCCAAUGCAUCCCACCACAUGAUGAUGUCUGAAGAGCCUUGGUUUUUUG, the “polymerase ribozyme fitness (log ratio)” value was -1.5. As for GACCAAUCUGCCCUCAGAGCUCGAGAACAUCUUCGGAUGCAGAGGAGGCAGGCUUCGGUGGCGCGAUAGCGCCAACGUCCUCAACCGCCAAUGCAUCCCACCACAAGCUGAUGCCUGAAGAGCCUUGGUUUUUUG, the “polymerase ribozyme fitness (log ratio)” value is -2.16.

On to GACCAAUCUGCCCUCAGAGCUCGAGAACAUCUUCGGAUGCAGAGGAGGCAGGCUUCGGUGGCGCGAUAGCGCCAACGUCCUCAACCUACAAUGCACCCCACCACAUGAUCAUGCCUGAAGAGCCUUGGUUUCUUG, for which the “polymerase ribozyme fitness (log ratio)” value was -4.37. Regarding GACCAAUCUGCCCUCAGAGCUCGAGAACAUCUUCGGAUGCAGAGGAGGCAGGCUUCGGUGGCGCGAUAGCGCCAACGUCCUCAACCGCCAAUGCAUCCUACCACAUGAUGAUGCCUGAAGAGCCUUGGUUUUUUG, the “polymerase ribozyme fitness (log ratio)” value was -3.22. Regarding GACCAAUCUGCCCUCAGAGCUCGAGAACAUCUUCGGAUGCAGAGGAGGCAGGCUUCGGUGGCGCGAUAGCGCCAACGUCCUCAACCUACAAUGCAUCCCAGCACAUGAUGAUGCCUGAUGAGCCUUGGUUUUUUG, the “polymerase ribozyme fitness (log ratio)” value was -3.66. Under GACCAAUCUGCCCUCAGAGCUCGAGAACAUCUUCGGAUGCAGAGGAGGCAGGCUUCGGUGGCGCGAUAGCGCCAACGUCCUCAACCUACAAUGCAUCCCACCAUAUGAUGAUGCCUGAAGAGCCUUAGUUUUUUG stands -1.76; under GACCAAUCUGCCCUCAGAGCUCGAGAACAUCUUCGGAUGCAGAGGAGGCAGGCUUCGGUGGCGCGAUAGCGCCAACGUCCUCAACCCCCGAUGCAACCCACCACAUGAUGAUGCCUGAAGAGCCUUGGUUUUUUG, 0.000334. With GACCAAUCUGCCCUCAGAGCUCGAGAACAUCUUCGGAUGCAGAGGAGGCAGGCUUCGGUGGCGCGAUAGCGCCAACGUCCUCAACCGCCAAUGCAUCCCACCACAUGAUAAUGCCUGAAGAGCCUUGGUUUUUUG, the “polymerase ribozyme fitness (log ratio)” value was -0.698.

With GACCAAUCUGCCCUCAGAGCUCGAGAACAUCUUCGGAUGCAGAGGAGGCAGGCUUCGGUGGCGCGAUAGCGCCAACGUCCUCAACCGCCAAUGCAUCCCACCACAUGAUUAUGCCUGAAGAGCCUUGGUUUUUUG, the “polymerase ribozyme fitness (log ratio)” value is -0.69.

Consider GACCAAUCUGCCCUCAGAGCUCGAGAACAUCUUCGGAUGCAGAGGAGGCAGGCUUCGGUGGCGCGAUAGCGCCAACGUCCUCAACCUACAAUGCAUCCCACCACAUGAUGAUACCUGAAGAGCAUUGGUUUUUUU, for which the “polymerase ribozyme fitness (log ratio)” value was -1.79. Turning to GACCAAUCUGCCCUCAGAGCUCGAGAACAUCUUCGGAUGCAGAGGAGGCAGGCUUCGGUGGCGCGAUAGCGCCAACGUCCUCAACCCCCAAUGCAUCCCACCACAUGAUGAUACCUGAAGAGCCUUGGUUUUAUG, the “polymerase ribozyme fitness (log ratio)” value is -0.981. With GACCAAUCUGCCCUCAGAGCUCGAGAACAUCUUCGGAUGCAGAGGAGGCAGGCUUCGGUGGCGCGAUAGCGCCAACGUCCUCAACCUACAAUGCAUCCCUCCACAUGAUGAUGCUUGAAGAGCCUUGGUUUUUUG, the “polymerase ribozyme fitness (log ratio)” value was -3.24.
